Legend:
[1] = biological target: T1, cynomolgus monkey FcγRIIa3 extracellular domain with C-terminal His-tag (cynomolgus monkey); assay: SPR (BIACORE); KD of SG1 / KD of variant
T1 construct: also called cyno FcgRIIa3; cynoFcγRIIa3; not shown: His-tag added to the C-terminus
T1 chain: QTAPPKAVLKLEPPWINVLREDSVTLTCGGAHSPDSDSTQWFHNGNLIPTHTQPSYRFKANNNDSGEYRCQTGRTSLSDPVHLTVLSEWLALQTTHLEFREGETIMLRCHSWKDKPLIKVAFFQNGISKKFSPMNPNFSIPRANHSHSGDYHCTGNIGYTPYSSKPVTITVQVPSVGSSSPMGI

[2] = biological target: T2, cynomolgus monkey FcγRIIb extracellular domain with C-terminal His-tag (cynomolgus monkey); assay: SPR (BIACORE); KD of SG1 / KD of variant
T2 construct: also called cyno FcgRIIb; cynoFcγRIIb; not shown: His-tag added to the C-terminus
T2 chain: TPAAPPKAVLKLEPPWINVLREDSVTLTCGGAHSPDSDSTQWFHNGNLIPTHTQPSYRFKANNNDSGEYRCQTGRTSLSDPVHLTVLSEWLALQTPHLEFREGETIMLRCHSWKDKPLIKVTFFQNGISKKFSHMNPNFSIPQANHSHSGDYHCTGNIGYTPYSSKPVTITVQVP

[3] = biological target: T3, cynomolgus monkey FcγRIIIaS extracellular domain with C-terminal His-tag (cynomolgus monkey, UniProt A3RFZ7 21-206 (rhesus entry)); assay: SPR (BIACORE); KD of SG1 / KD of variant
T3 construct: also called cyno FcgRIIIaS; cynoFcγRIIIaS; not shown: His-tag added to the C-terminus
T3 sequence (A3RFZ7 21-206): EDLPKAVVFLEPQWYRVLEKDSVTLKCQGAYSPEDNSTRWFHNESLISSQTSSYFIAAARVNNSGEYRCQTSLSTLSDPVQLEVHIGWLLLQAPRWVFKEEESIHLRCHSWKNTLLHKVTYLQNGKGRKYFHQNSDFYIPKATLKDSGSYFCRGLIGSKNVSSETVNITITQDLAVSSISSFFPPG

[4] = biological target: T4, human FcγRIIaH extracellular domain with C-terminal His-tag (human, UniProt P12318 34-217); assay: SPR (BIACORE); KD of SG1 / KD of variant
T4 construct: also called human FcgRIIaH; FcγRIIa type H; not shown: His-tag added to the C-terminus
T4 sequence: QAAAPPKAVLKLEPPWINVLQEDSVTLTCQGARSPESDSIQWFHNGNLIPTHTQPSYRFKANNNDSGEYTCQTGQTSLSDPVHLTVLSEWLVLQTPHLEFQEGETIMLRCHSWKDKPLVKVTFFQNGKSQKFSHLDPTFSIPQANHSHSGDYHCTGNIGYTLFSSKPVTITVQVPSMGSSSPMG

[5] = biological target: T3, cynomolgus monkey FcγRIIIaS …; assay: SPR (BIACORE), antibody captured, FcgR analyte

B1: M103205H795-MY050/M103202L889-SK1 (antibody, human IgG1, kappa, name in EU numbering)
heavy: QVTLKESGPVLVKPTETLTLTCTVSGIDLSHDDISWVRQAPGKGLEWVGIISYAGSTYYASWAKGRLTISKDTSKNQVVLTMTNMDPVDTATYYCARGVPAYSHGGDLWGQGTLVTVSSASTKGPSVFPLAPSSKSTSGGTAALGCLVKDYFPEPVTVSWNSGALTSGVHTFPAVLQSSGLYSLSSVVTVPSSSLGTQTYICNVNHKPSNTKVDKKVEPKSCDKTHTCPPCPAPELLNGPSVFLFPPKPKDTLMISRTPEVTCVVVDVAEEDPEVKFNWYVDGVEVHNAKTKPREEQYNSTYRVVSVLTVLHQDWLNGKEYKCKVSNKALPAPIEKTISKAKGQPREPQVYTLPPSREEMTKNQVSLTCLVKGFYPSDIAVEWESNGQPENNYKTTPPVLDSDGSFFLYSKLTVDKSRWQQGNVFSCSVMHEALHNHYTQKSLSLSP
light: DIVMTQSPATLSLSPGERATLSCTSSQSVYHANWLSWFQQKPGQPPKLLIYWASTLAYGVPSRFSGSGSGTDFTLTISSLQPEDAATYYCAGGYGGGRYAFGQGTKVEIKRTVAAPSVFIFPPSDEQLKSGTASVVCLLNNFYPREAKVQWKVDNALQSGNSQESVTEQDSKDSTYSLSSTLTLSKADYEKHKVYACEVTHQGLSSPVTKSFNRGEC
notes: Fc variant of MS1032LO06-SG1; positions in EU numbering
[1]
  KD fold (SG1 = 1): 0.5 fold
[2]
  KD fold (SG1 = 1): 1.3 fold
[3]
  KD fold (SG1 = 1): 0.21 fold
[4]
  KD fold (SG1 = 1): 0.3 fold
[5]
  Kd: 1.7 µM

B2: M103205H795-MY147/M103202L889-SK1 (antibody, human IgG1, kappa, name in EU numbering)
heavy: QVTLKESGPVLVKPTETLTLTCTVSGIDLSHDDISWVRQAPGKGLEWVGIISYAGSTYYASWAKGRLTISKDTSKNQVVLTMTNMDPVDTATYYCARGVPAYSHGGDLWGQGTLVTVSSASTKGPSVFPLAPSSKSTSGGTAALGCLVKDYFPEPVTVSWNSGALTSGVHTFPAVLQSSGLYSLSSVVTVPSSSLGTQTYICNVNHKPSNTKVDKKVEPKSCDKTHTCPPCPAPELWNGPSVFLFPPKPKDTLMISRTPEVTCVVVDVSEEDPEVKFNWYVDGVEVHNAKTKPREEQYNSTYRVVSVLTVLHQDWLNGKEYKCKVSNKALPAPIEKTISKAKGQPREPQVYTLPPSREEMTKNQVSLTCLVKGFYPSDIAVEWESNGQPENNYKTTPMVLDSDGSFFLYSKLTVDKSRWQQGNVFSCSVMHEALHNHYTQKSLSLSP
light: DIVMTQSPATLSLSPGERATLSCTSSQSVYHANWLSWFQQKPGQPPKLLIYWASTLAYGVPSRFSGSGSGTDFTLTISSLQPEDAATYYCAGGYGGGRYAFGQGTKVEIKRTVAAPSVFIFPPSDEQLKSGTASVVCLLNNFYPREAKVQWKVDNALQSGNSQESVTEQDSKDSTYSLSSTLTLSKADYEKHKVYACEVTHQGLSSPVTKSFNRGEC
notes: as for B1
[2]
  KD fold (SG1 = 1): 1.9 fold
[3]
  KD fold (SG1 = 1): 0.07 fold
[5]
  Kd: 5.5 µM

Reference: US20250076311A1 (Chugai, published 2025)
